Positions count from the first letter of the chain named.
B1: L6.P4A3.1 (antibody, V domains shown)
VH: QVQLVQSGAEVKKPGSSVKVSCKASGGIFSSSAISWVRQAPGQGLEWMGGIIPILDISNYAQKFQGRVTITADKSTSTAFMELSSLRSEDTAVYYCALTNQWDLLVYWGQGTLVTVSS
VL: EIVLTQSPGTLSLSPGERATLSCRASQRVSSSYLAWYQQKPGQAPRLLIYGAESRATGIPDRFSGSGSGTDFTLTISRLEPEDFAVYYCQHYGSSLWTFGQGTKLEIK
B2: L6.P4A3.3 (antibody, V domains shown)
VH: B1 VH with S25P, I28T, S58T, N59H, T99R
VL: B1 VL with R28D, L96E
B3: L6.P4A3.5 (antibody, V domains shown)
VH: B1 VH with S25V, I28T, S35Y, S58A, T99R, L105V
VL: B1 VL with R24H, R28S, L96T
B4: L6.P4A3.12 (antibody, V domains shown)
VH: B1 VH with I28L, S58T
VL: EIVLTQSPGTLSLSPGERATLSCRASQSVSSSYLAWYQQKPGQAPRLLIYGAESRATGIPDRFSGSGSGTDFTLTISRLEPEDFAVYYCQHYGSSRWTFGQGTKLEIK
B5: L6.P4A3.8 (antibody, V domains shown)
VH: B1 VH with A24V, I28T, G50K, S58T, T99R
VL: B1 VL with R28S, S32H, L96P
B6: L6.P4A3.b (antibody, V domains shown)
VH: B1 VH with S25P, I28T, S58T, N59T, T99R, V106I
VL: B1 VL with R28S, S32H, E53S, A56Y, L96H
B7: L6.P4A3.9 (antibody, V domains shown)
VH: B1 VH with A24S, I28T, I34Y, G50T, S58T, L98Q, T99R, L105I
VL: B1 VL with R28W, L34I, L96S
B8: L6.P4A3.7 (antibody, V domains shown)
VH: B1 VH with I57Y, S58T, T99R
VL: B1 VL with R28E, L96A
B9: L6.P4A3.2 (antibody, V domains shown)
VH: B1 VH with S25P, I28T, G50T, S58T, L98Q, T99R
VL: B1 VL with R28S, S31A, L96R

biological target: human insulin (human, UniProt P01308 25-54; P01308 90-110); experiment: polyreactivity ELISA
Sequence (P01308 25-54 limits assumed, chain 1 of 2): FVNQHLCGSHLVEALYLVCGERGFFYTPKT
Sequence (P01308 90-110 limits assumed, chain 2 of 2): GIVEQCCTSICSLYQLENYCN

Binder | binding result
B1 | no binding
B2 | no binding
B3 | no binding
B4 | no binding
B5 | no binding
B6 | no binding
B7 | no binding
B8 | no binding
B9 | no binding

Source: patent publication US20230357364A1 (INTERNATIONAL AIDS VACCINE INITIATIVE, published 2023)
